To fix the notation:
T1: mouse SIRPA overexpressed on CHO cells (mouse, UniProt P97797 32-513)
T1 construct: also called CHO-muSIRPA
T1 sequence: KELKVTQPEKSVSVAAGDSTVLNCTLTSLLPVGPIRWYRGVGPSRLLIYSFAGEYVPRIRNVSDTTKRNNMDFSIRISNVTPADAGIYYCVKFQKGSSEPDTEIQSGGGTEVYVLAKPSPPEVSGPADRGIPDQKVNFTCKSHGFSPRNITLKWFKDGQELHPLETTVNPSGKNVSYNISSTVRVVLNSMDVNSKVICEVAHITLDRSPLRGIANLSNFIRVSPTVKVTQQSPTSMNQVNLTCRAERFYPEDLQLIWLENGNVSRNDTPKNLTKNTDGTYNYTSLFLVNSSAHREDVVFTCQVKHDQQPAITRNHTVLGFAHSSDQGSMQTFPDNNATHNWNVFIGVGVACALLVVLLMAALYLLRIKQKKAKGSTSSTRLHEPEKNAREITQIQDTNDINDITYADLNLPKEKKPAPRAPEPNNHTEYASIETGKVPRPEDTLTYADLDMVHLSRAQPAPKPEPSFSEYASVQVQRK

T2: Mouse SIRPA D1 Fc (mouse, UniProt P97797 32-150, limits assumed)
T2 sequence: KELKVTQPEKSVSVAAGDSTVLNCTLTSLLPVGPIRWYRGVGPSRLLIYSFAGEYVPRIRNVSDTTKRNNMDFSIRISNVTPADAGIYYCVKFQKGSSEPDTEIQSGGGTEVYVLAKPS

B1: SA-56-94 (antibody, V domains shown)
VH: EVQLVESGGGVVQPGRSLRLSCAASGFTFSYYGMSWVRQAPGKGLEWVASIWVDGSNKYYADSVKGRFTISRDNSKNTLYLQMNSLRAEDTAVYYCAVGTETYSGPNWFDPWGQGTLVTVSS
VL: DIQMTQSPSSVSASVGDRVTITCRASQGISSWLAWYQQKPGKAPKLLIYAASSLQSGVPSRFSGSGSGTDFTLTISSLQPEDFATYYCQQAIYFPITFGGGTKVEIK
notes: IgG; also called SA-94
B2: SA-56-96 (antibody, V domains shown)
VH: B1 VH with V5L, Y31S, G33A, S35G, S50V, N57L, V98T, T100R
VL: B1 VL
notes: IgG
B3: SA-56-93 (antibody, V domains shown)
VH: B1 VH with V5L, T78A, G99S, T100R
VL: B1 VL
notes: IgG
B4: SA-56-95 (antibody, V domains shown)
VH: B1 VH with V5L, S30A, Y31H, S35A, S50V, N57P, G99A, T100R
VL: B1 VL
notes: IgG
B5: SA-56-92 (antibody, V domains shown)
VH: B1 VH with N84D, V98T, T100V
VL: B1 VL
notes: IgG
B6: SA-25 (antibody, V domains shown)
VH: QVQLVQSGAEVKKPGSSVKVSCKASGGTFSSYAISWVRQAPGQGLEWMGSIIPIFGTANYAQKFQGRVTITADESTSTAYMELSSLRSEDTAVYYCARDRGYPRYSYLDLWGRGTLVTVSS
VL: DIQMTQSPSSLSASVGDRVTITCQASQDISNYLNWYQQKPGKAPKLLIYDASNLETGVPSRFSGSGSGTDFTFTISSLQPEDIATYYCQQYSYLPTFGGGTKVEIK
notes: IgG
B7: SA-19 (antibody, V domains shown)
VH: QVQLVESGGGVVQPGRSLRLSCAASGFTFSSYGMHWVRQAPGKGLEWVAVISYDGSNKYYADSVKGRFTISRDNSKNTLYLQMNSLRAEDTAVYYCARDLTKYTLGFAFDIWGQGTMVTVSS
VL: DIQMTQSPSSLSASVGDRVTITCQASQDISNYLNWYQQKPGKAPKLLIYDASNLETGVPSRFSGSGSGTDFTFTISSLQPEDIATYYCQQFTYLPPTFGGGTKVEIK
notes: IgG; also called SA-19 (parental)
B8: SA-23 (antibody, V domains shown)
VH: QVQLVQSGAEVKKPGASVKVSCKASGYTFTSYGISWVRQAPGQGLEWMGWISTYNGNTNYAQKLQGRVTMTTDTSTSTAYMELRSLRSDDTAVYYCARDQGTGTTVDLDLWGRGTLVTVSS
VL: not shown
notes: IgG
B9: SA-27 (antibody, V domains shown)
VH: QLQLQESGPGLVKPSETLSLTCTVSGGSISSSSYYWGWIRQPPGKGLEWIGSIYYSGSTYYNPSLKSRVTISVDTSKNQFSLKLSSVTAADTAVYYCARDSDKVALDLWGRGTLVTVSS
VL: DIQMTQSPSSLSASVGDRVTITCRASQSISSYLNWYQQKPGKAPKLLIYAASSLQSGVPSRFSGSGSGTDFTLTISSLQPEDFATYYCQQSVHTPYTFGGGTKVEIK
notes: IgG
B10: SA-14 (antibody, V domains shown)
VH: EVQLVESGGGLVKPGGSLRLSCAASGFTFSSYSMNWVRQAPGKGLEWVSSISSSSSYIYYADSVKGRFTISRDNAKNSLYLQMNSLRAEDTAVYYCARDGSMYYGDPMDVWGQGTTVTVSS
VL: DIQLTQSPSSLSASVGDRVTITCQASQDISNFLNWYQQKPGKAPKLLIYDASNLETGVPSRFSGSGSGTDFTFTISSLQPEDIAKYYCQQFINFPLTFGGGTKVEIK
notes: IgG
B11: SA-16 (antibody, V domains shown)
VH: QVQLQQWGAGLLKPSETLSLTCAVYGGSFSGYYWSWIRQPPGKGLEWIGEIDHSGSTNYNPSLKSRVTISVDTSKNQFSLKLSSVTAADTAVYYCARDLGPPGPHLDVWGQGTMVTVSS
VL: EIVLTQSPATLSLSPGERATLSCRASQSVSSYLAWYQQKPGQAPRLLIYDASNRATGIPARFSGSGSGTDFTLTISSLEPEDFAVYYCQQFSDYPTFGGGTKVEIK
notes: IgG
B12: SA-12 (antibody, V domains shown)
VH: QVQLVQSGAEVKKPGASVKVSCKASGYTFTSYYIHWVRQAPGQGLEWMGIINPSGGSTSYAQKFQGRVTMTRDTSTSTVYMELSSLRSEDTAVYYCARAPGSWFYWGQGTLVTVSS
VL: EIVLTQSPATLSLSPGERATLSCRASQSVSSYLAWYQQKPGQAPRLLIYDASNRATGIPARFSGSGSGTDFTLTISSLEPEDFAVYYCQQRTNFPITFGGGTKVEIK
notes: IgG
B13: SA-26 (antibody, V domains shown)
VH: QVQLQQWGAGLLKPSETLSLTCAVYGGSFSGYYWSWIRQPPGKGLEWIGEIDHSGSTNYNPSLKSRVTISVDTSKNQFSLKLSSVTAADTAVYYCARDRLDGSLGIYGMDVWGQGTTVTVSS
VL: B1 VL with V11L, G28S, S30N, W32Y, A34N, A91S, I92P, Y93S, F94D, I96W
notes: IgG
B14: SA-22 (antibody, V domains shown)
VH: EVQLVESGGGLVKPGGSLRLSCAASGFTFSSYSMNWVRQAPGKGLEWVSSISSSSSYIYYADSVKGRFTISRDNAKNSLYLQMNSLRAEDTAVYYCARDPTDSSSYYDVWGQGTLVTVSS
VL: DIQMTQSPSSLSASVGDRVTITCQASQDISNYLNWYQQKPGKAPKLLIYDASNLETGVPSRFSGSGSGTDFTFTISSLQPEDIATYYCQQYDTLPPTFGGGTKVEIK
notes: IgG
B15: SA-8-64 Fab (Fab, V domains shown)
VH: QVQLVESGGGLVKPGGSLRLSCAASGFTFSSYSMHWVRQAPGKGLEWVSSISSSDSWIYYADSVKGRFTISRDNAKNSLYLQMNSLRAEDTAVYYCAKEPRSYWHGYGMDVWGQGTTVTVSS
VL: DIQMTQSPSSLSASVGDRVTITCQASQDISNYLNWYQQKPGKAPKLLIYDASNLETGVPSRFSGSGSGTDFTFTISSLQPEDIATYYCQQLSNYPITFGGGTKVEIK
notes: papain Fab
B16: SA-8-62 Fab (Fab, V domains shown)
VH: B15 VH with N84D, P100R, R101V, S102D
VL: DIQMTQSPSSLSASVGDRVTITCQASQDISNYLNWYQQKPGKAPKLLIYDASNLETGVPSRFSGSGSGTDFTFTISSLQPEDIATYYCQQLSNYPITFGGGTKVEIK
notes: papain Fab
B17: SA-8-67 Fab (Fab, V domains shown)
VH: B15 VH with Q1E, D55P, W57H
VL: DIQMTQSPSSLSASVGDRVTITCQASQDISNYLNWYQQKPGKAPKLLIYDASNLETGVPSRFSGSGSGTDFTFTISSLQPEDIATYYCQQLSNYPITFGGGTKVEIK
notes: papain Fab
B18: SA-13-68 Fab (Fab, V domains shown)
VH: EVQLLESGGGLVQPGGSLRLSCAASGFTFTEYAMSWVRQAPGKRLEWVSAISGSGGSTYYADSVKGRFTISRDNSKNTLYLQMSSLRAEDTAVYYCARDNIQWGPHFYWGQGTLVTVSS
VL: B1 VL with V11L, G28S, W32Y, A34N, A91G, I92Y, Y93I, F94Y, I96P
notes: papain Fab

We go through 18 molecules from patent US20240270866A1 (Alector, published 2024).

Substitutions are numbered along the chain they refer to.

Chain of Human SIRPb D1 Fc (O00241 30-148 limits assumed): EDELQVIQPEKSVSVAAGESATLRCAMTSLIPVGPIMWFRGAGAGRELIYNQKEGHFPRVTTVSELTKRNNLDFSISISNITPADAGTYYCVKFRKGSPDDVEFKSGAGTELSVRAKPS

One test has as its target T3, human SIRPA Fc fusion antigen (human, UniProt P78324 31-373).
T3 construct: heterologous signal peptide; not shown: human IgG1 Fc
Put plainly: ForteBio IgG avid.
In turn, B1 showed a Kd of 0.566 nM.
The molecule B2 yielded an equilibrium dissociation constant (Kd) of 1.04 nM.
Turning to B3, the Kd worked out at 0.862 nM.
Take B4: the Kd came out at 1.06 nM.
On the same count and under the same terms, next, B5: 0.365 nM.

In a further test the target is T4, human SIRPβ1 Fc fusion antigen (human, UniProt O00241 30-371).
T4 construct: not shown: human IgG1 Fc
T4 sequence (O00241 30-371 limits assumed): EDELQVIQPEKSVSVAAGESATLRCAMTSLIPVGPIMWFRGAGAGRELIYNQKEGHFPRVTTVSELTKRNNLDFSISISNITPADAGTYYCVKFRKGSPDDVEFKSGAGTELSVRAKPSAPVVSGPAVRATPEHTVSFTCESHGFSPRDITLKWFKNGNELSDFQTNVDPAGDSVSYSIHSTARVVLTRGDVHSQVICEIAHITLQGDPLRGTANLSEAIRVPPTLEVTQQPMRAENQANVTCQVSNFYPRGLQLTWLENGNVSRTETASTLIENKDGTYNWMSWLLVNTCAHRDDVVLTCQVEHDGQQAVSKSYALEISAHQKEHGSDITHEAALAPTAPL
Put plainly: ForteBio IgG avid. (In general: In BLI a coated tip is dipped into the sample, and binding shifts an interference pattern.)
B1: the binding result is listed as “no binding (tested: 100 nM)”.
The same measure, in the same setting: then B2, with “no binding (tested: 100 nM)”.
Same read-out and setting: then B3, with “no binding (tested: 100 nM)”; and B4, with “no binding (tested: 100 nM)”; and B5, with “no binding (tested: 100 nM)”.

A further test deals with T1, mouse SIRPA overexpressed on CHO cells. Put plainly: flow, CHO-muSIRPA.
Protocol: Initial characterization of anti-SIRPA antibodies of the present disclosure involved determining their ability to bind cell lines overexpressing human or mouse SIRPA. Cells were harvested, plated at 10⁶/ml in a 96 well plate, washed, and incubated in 100 ul PBS containing 1 ug/ml Mab for 1 hour in ice. Cells were then washed twice and incubated in 100 ul PBS containing 5 ug/ml PE-conjugated secondary antibody for 30 minutes in ice. Cells were washed twice in cold PBS and acquired on a BD FACS Canto. Data analysis and calculation of mean fluorescence intensity (MFI) values or % positive cells was performed with FlowJo® (TreeStar) software version 10.0.7.
As for B6, the “relative MFI” value amounted to 0.586 fold over background.
The same measure, in the same setting: then B7, with 0.601 fold over background; and B8, with 0.533 fold over background; and B9, with 0.619 fold over background.
Same read-out and setting: then B10, with 0.732 fold over background; and B11, with 0.539 fold over background.
Still for that read-out and setting: next, B12: 0.548 fold over background; B13: 0.574 fold over background.
On to B14, for which the “relative MFI” value was found to be 0.619 fold over background.

The next test addresses T3, human SIRPA Fc fusion antigen. Kind of test: ForteBio Fab monovalent.
Protocol: Briefly, ForteBio affinity measurements were performed by loading immunoglobulins (IgGs) on-line onto AHQ sensors. Sensors were equilibrated off-line in assay buffer for 30 min and then monitored on-line for 60 seconds for baseline establishment. For avid binding measurement, sensors with loaded IgGs were exposed to 100 nM antigen (human SIRPA or SIRPβ1 Fc fusion) for 3 min, afterwards they were transferred to assay buffer for 3 min for off-rate measurement. […] Monovalent binding measurements were obtained by loading human SIRPA Fc fusion antigens to AHQ sensor and followed by exposure to 100 nM anti-SIRPA antibody Fab.
Additional monovalent measurements were made by loading biotinylated human SIRPA monomer to SA sensor followed by exposure to 100 nM Fab in solution. Kinetics data were fit using a 1:1 binding model in the data analysis software provided by ForteBio.
Turning to B15, the dissociation constant (Kd) stood at 27.7 nM.
In the case of B16, the dissociation constant Kd turned out to be 8.92 nM.
Still for that read-out and setting: then B17, with 131 nM; and B18, with 81.5 nM.

A further test deals with T5, human SIRPA overexpressed on CHO cells (human, UniProt P78324 31-504).
T5 construct: also called CHO-huSIRPA
Kind of test: flow, CHO-huSIRPA.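 Further: Anti-SIRPA antibodies applied at 1 µg/mL for 1 h on ice, binding read by flow cytometry using a PE-labelled secondary antibody.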
As for B6, the “relative MFI” value came to 8.27 fold over background.
Still for that read-out and setting: then B8, with 21.1 fold over background; and B9, with 0.722 fold over background; and B10, with 24.4 fold over background.
On the same count and under the same terms, next, B11: 0.592 fold over background; B12: 52 fold over background; B13: 1.1 fold over background.
Turning to B14, the “relative MFI” value stood at 1.39 fold over background.

The next test has as its target T1, mouse SIRPA overexpressed on CHO cells. Put plainly: flow, CHO-muSIRPA. This is another data set of the same source.
For B6, the binding result is “no binding (tested: 1 ug/ml)”.
The same measure, in the same setting: then B7, with “no binding (tested: 1 ug/ml)”; and B9, with “no binding (tested: 1 ug/ml)”.
Same read-out and setting: next, B10: “no binding (tested: 1 ug/ml)”.
With B11, the binding result is listed as “no binding (tested: 1 ug/ml)”.
With B12, the binding result is “no binding (tested: 1 ug/ml)”.
Still for that read-out and setting: next, B13: “no binding (tested: 1 ug/ml)”.
As for B14, the binding result is “no binding (tested: 1 ug/ml)”.

In the next test the target is T2, Mouse SIRPA D1 Fc. Kind of test: ForteBio IgG avid.
Regarding B6, the binding result was “no binding (tested: 100 nM)”.
Turning to B7, the binding result was “no binding (tested: 100 nM)”.
The same measure, in the same setting: then B9, with “no binding (tested: 100 nM)”.
In the case of B10, the binding result is on record as “no binding (tested: 100 nM)”.
On the same count and under the same terms, then B11, with “no binding (tested: 100 nM)”; and B12, with “no binding (tested: 100 nM)”; and B13, with “no binding (tested: 100 nM)”.
The same measure, in the same setting: then B14, with “no binding (tested: 100 nM)”.

Another test addresses Human SIRPb D1 Fc (human, UniProt O00241 30-148, limits assumed). Kind of test: ForteBio IgG avid.
On to B6, for which the binding result is recorded as “no binding (tested: 100 nM)”.
Still for that read-out and setting: then B9, with “no binding (tested: 100 nM)”; and B10, with “no binding (tested: 100 nM)”.
Still for that read-out and setting: then B11, with “no binding (tested: 100 nM)”.
For B12, the binding result is recorded as “no binding (tested: 100 nM)”.
On the same count and under the same terms, next, B13: “no binding (tested: 100 nM)”; B14: “no binding (tested: 100 nM)”.

A further test has as its target T6, Human SIRPA D1 Fc (human, UniProt P78324 32-137).
T6 construct: not shown: human IgG1 Fc
Put plainly: ForteBio IgG avid.
The molecule B6 displayed a Kd of 24.2 nM.
Turning to B7, the binding result was “binds”.
B8 returned a Kd of 38 nM.
Same read-out and setting: then B9, with 4.43 nM.
On the same count and under the same terms, next, B10: 31 nM; B11: 4.02 nM.
B12 yielded a dissociation constant (Kd) of 13 nM.
As for B13, the dissociation constant Kd was determined as 13.8 nM.
Regarding B14, the affinity, expressed as Kd, was 22 nM.

Broadly, the Kd is the concentration at which binding is half-saturated. The low end stands for tighter binding, the high end for weaker binding.
